Reference: US20210008108A1 (ETABLISSEMENT FRANCAIS DU SANG, published 2021)

Molecular target: T1, recombinant fusion protein consisting of the extra cellular part of IL-1RAP and the Fc-part of human IgG1 … (human, UniProt Q9NPH3 21-367)
T1 construct: extracellular domain; also called IL-1RAP recombinant protein; recombinant IL-1RAP protein; not shown: Fc-part of human IgG1
T1 sequence (looked up): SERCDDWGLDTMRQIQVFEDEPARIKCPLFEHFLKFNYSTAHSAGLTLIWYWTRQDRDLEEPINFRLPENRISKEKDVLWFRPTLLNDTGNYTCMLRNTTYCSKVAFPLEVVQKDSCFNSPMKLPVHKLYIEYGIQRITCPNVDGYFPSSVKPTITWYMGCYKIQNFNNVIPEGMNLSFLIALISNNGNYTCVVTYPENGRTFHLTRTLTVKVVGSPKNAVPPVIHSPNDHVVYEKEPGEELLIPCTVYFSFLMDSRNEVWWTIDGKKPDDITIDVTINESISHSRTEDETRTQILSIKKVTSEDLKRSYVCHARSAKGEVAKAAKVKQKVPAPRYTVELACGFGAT
Assay: ELISA, IL-1RAP protein captured by coated anti-human Fc, detected with anti-mouse Fc-HRP
Description: Anti-human Fc antibody was coated on a bottom of a plastic ELISA plate.

B1: mouse anti-hIL-1RAP monoclonal antibody clone #E3C3 (antibody, V domains shown)
VH: QVQLQQPGAELMMPGASVKVSCEASGYTFTDSWMHWVKQRPGQGLEWIGAIDPSDSYTTYNQKFTGKATLSVDESSNTAYMQLSSLTSEDSAVYYCARYYSGSNYISPFPYWGQGTLVTVSA
VL: DIVMTQSHKFMSTSVGDRVTITCKASLDVSTAVAWYQQKPGQSPKLLIYSASYRYTGVPDRFTGSGSGTDFTFTISSVQAEDLAVYYCQQHYSPPFTFGSGTNLEIK
notes: Murine hybridoma antibody; It was Alexa Fluor 488 labelled in some flow cytometry; also called #A3C3; #E3C3 mAb
binding result: binds
